Assay results as given in the supplement of paper PMC7125110.
± gives the standard error. For some of these results: Variants at the floor of the assay were thinned out.

B1: glmS ribozyme (parent)
chain: AUAAAAGCGCCAGAACUACAGAAAUGUAGUUGACGAGGAGGAGGUUUAUCGAAUUUUCGGCGGAUGCCUCCAAA

Tests used:
Details in all cases: with glucosamine-6-phosphate
glucosamine-6-phosphate [1] = variants of: B1; assay: kcat; higher = faster cleavage; RNA array
Procedure, shortened: (§1)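 Glucosamine-6-phosphate in HEPES/KCl/Mg(OAc)2 buffer, at 40 μM to 10 mM, was flowed over barcoded ribozyme variants transcribed in situ by E. coli RNA polymerase on sequenced MiSeq chips. Tracking was through a hybridised Cy3 probe at 37 °C. kobs, kcat and KM came from exponential decay fits and weighted Michaelis–Menten fits of normalised per-tile medians.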

glucosamine-6-phosphate [2] = variants of: B1; assay: self-cleavage kobs at 10000 uM GlcN6P; higher = faster cleavage; RNA array
Procedure, shortened: as §1

glucosamine-6-phosphate [3] = variants of: B1; assay: KM; higher = weaker cofactor use; RNA array
Procedure, shortened: as §1

glucosamine-6-phosphate [4] = variants of: B1; assay: self-cleavage kobs at 40 uM GlcN6P; higher = faster cleavage; RNA array
Procedure, shortened: as §1

glucosamine-6-phosphate [5] = variants of: B1; assay: self-cleavage kobs at 2500 uM GlcN6P; higher = faster cleavage; RNA array
Procedure, shortened: as §1

glucosamine-6-phosphate [6] = variants of: B1; assay: self-cleavage kobs at 160 uM GlcN6P; higher = faster cleavage; RNA array
Procedure, shortened: as §1

glucosamine-6-phosphate [7] = variants of: B1; assay: self-cleavage kobs at 640 uM GlcN6P; higher = faster cleavage; RNA array
Procedure, shortened: as §1

Variant	kcat (glucosamine-6-phosphate [1]) [s⁻¹]	self-cleavage kobs at 10000 uM GlcN6P (glucosamine-6-phosphate [2]) [s⁻¹]	KM (glucosamine-6-phosphate [3]) [µM]	self-cleavage kobs at 40 uM GlcN6P (glucosamine-6-phosphate [4]) [s⁻¹]	self-cleavage kobs at 2500 uM GlcN6P (glucosamine-6-phosphate [5]) [s⁻¹]	self-cleavage kobs at 160 uM GlcN6P (glucosamine-6-phosphate [6]) [s⁻¹]	self-cleavage kobs at 640 uM GlcN6P (glucosamine-6-phosphate [7]) [s⁻¹]
C11A G37A	< 1e-05						
C10A C71U	< 1e-05						
C8U C10A A15U G38A C50U	< 1e-05						
C11A C16G	0.000161 ± 3.7e-05	5.99e-05 ± 1.1e-05					
C10U U31G	2.34e-05 ± 1.5e-06		552 ± 200	< 1e-05			
C10G A52G U56A C70A	1.68e-05 ± 4.2e-06						
C11A U31C	7.57e-05 ± 7.2e-06	6.39e-05 ± 1.1e-05	1620 ± 610		5.09e-05 ± 1.4e-05		
C8A G37C	< 1e-05					< 1e-05	< 1e-05
G7A U54C	1.94e-05 ± 3.6e-06						
C10A A12C	0.00025 ± 4.4e-05	0.000185 ± 1.9e-05	2520 ± 930		0.000143 ± 1.2e-05		4.03e-05 ± 8.4e-06
C10G C11U C67G	3.06e-05 ± 8.7e-06						5.14e-05 ± 2.4e-05
C10A U46G C50U C68U	3.67e-05 ± 1.3e-05						
G7U G37C	< 1e-05			< 1e-05			< 1e-05
G9A U49A A52G	< 1e-05						
G9A U47G	< 1e-05						< 1e-05
C10A G38C	< 1e-05					< 1e-05	< 1e-05
C10A A53G	1.35e-05 ± 4.5e-06			< 1e-05		< 1e-05	
C10U U54C	2.54e-05 ± 7.7e-06			< 1e-05	3.09e-05 ± 1.2e-05		
C10U U54G	< 1e-05			< 1e-05			
C11A A14G	0.000935 ± 5.4e-05	0.000802 ± 7.8e-05	1790 ± 200	1.65e-05 ± 7.4e-06	0.00051 ± 7.7e-05	7.64e-05 ± 2e-05	0.000261 ± 3.2e-05
C10G C58A	1.01e-05 ± 1.8e-06	< 1e-05					< 1e-05
C10G C70A	< 1e-05	< 1e-05					
C10U C68U	1.42e-05 ± 6.5e-06			< 1e-05			
C8A G37C G38A C70U	1.14e-05 ± 3.5e-06						

Variant	kcat (glucosamine-6-phosphate [1]) [s⁻¹]	self-cleavage kobs at 10000 uM GlcN6P (glucosamine-6-phosphate [2]) [s⁻¹]	KM (glucosamine-6-phosphate [3]) [µM]	self-cleavage kobs at 40 uM GlcN6P (glucosamine-6-phosphate [4]) [s⁻¹]	self-cleavage kobs at 2500 uM GlcN6P (glucosamine-6-phosphate [5]) [s⁻¹]	self-cleavage kobs at 160 uM GlcN6P (glucosamine-6-phosphate [6]) [s⁻¹]	self-cleavage kobs at 640 uM GlcN6P (glucosamine-6-phosphate [7]) [s⁻¹]
C10A A48U	< 1e-05	< 1e-05					< 1e-05
G9U U69G	1.33e-05 ± 5.4e-06	< 1e-05			< 1e-05		
C10U C16U	1.06e-05 ± 1.7e-06						
C8U C61A	< 1e-05						
G7U C16U C50G U69G	0.000615 ± 0.00015	0.00054 ± 0.00017		0.00029 ± 0.00013	0.000564 ± 0.0002		0.0012 ± 0.00039
C11A A12C	0.00026 ± 5.5e-05	0.000406 ± 0.00015	900 ± 380		0.000182 ± 3.2e-05	4.82e-05 ± 1.5e-05	0.000103 ± 1.8e-05
C10G A52U	< 1e-05			< 1e-05		< 1e-05	< 1e-05
C10A U56A	< 1e-05	< 1e-05					
C10A U57A	< 1e-05						< 1e-05
C11A A39C	3.87e-05 ± 5.2e-06	3.53e-05 ± 7.7e-06			4.76e-05 ± 1.5e-05		
C8U C71U	< 1e-05		25 ± 11				< 1e-05
C10A C67G	8.97e-05 ± 1.7e-05			2.69e-05 ± 1.1e-05	7.6e-05 ± 1.7e-05		8.76e-05 ± 1.4e-05
G7A U69C	< 1e-05					< 1e-05	
C11A C71G	5.67e-05 ± 6.5e-06	5.95e-05 ± 1.3e-05			4.99e-05 ± 1.2e-05		
C11A C71A	6.72e-05 ± 2.1e-05	4.87e-05 ± 6.4e-06			2.11e-05 ± 9e-06		
C8U U31A	< 1e-05						< 1e-05
G7U A14U G29A G37U C61G U69C	0.000491 ± 3.7e-05		143 ± 19	0.000105 ± 2.3e-05	0.000446 ± 0.00019	0.000282 ± 7.4e-05	0.000389 ± 0.00014
C11A A15C C70A	4.15e-05 ± 2.7e-06	4.27e-05 ± 1.9e-05					
C10G C11A	< 1e-05			< 1e-05			< 1e-05
C10U G32A	2.81e-05 ± 1.1e-06	2.81e-05 ± 7.9e-06		< 1e-05	2.53e-05 ± 9.9e-06		
C8U C34U G35U C70A	< 1e-05			< 1e-05			
C10G A15G	1.16e-05 ± 4e-06						
C10U A12U	0.000153 ± 2.3e-05	0.000113 ± 9e-06	3200 ± 1200		8.4e-05 ± 1.2e-05		1.92e-05 ± 6e-06
